Experimental data taken from patent US20220054648A1.

What was measured:
[1] = target: human Trop-2 (human) (UniProt P09758); assay: cell binding assay on NCI-N87 cells, anti-mouse-HRP secondary, luminescence
[2] = target: human Trop-2 (human) (UniProt P09758); assay: cell binding assay (cell line not given)

Chain of human Trop-2 (human) (P09758 27-323): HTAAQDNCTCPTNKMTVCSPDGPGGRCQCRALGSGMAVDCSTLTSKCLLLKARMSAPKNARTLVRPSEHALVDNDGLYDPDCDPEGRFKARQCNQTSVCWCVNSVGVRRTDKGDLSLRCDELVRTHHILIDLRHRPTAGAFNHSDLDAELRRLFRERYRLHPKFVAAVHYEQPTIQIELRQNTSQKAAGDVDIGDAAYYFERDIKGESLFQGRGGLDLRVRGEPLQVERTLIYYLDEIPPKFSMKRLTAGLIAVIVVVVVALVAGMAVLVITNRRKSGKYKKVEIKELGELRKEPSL

Row | Substance | BMax (relative luminescent units) [1] | Kd [2]
1 | 162-46.2 murine monoclonal antibody against human Trop-2 | 8470 | –
2 | MAB650 murine monoclonal antibody against human Trop-2 (R&D Systems) | 6020 | –
3 | hRS7-CL2A-SN-38 (anti-Trop-2 ADC, hRS7 IgG conjugated to CL2A-SN-38) (antibody) | – | 1.2 nM
4 | hRS7-CL2-SN-38 (anti-Trop-2 ADC, hRS7 IgG conjugated to CL2-SN-38) (antibody) | – | 1.2 nM
